Assays:
Experiment in all cases: ELISA, polypeptide coated at 1.0 µg/mL
C5aR polypeptide-05 = C5aR polypeptide-05 (UniProt P21730)
[1] = target: C5aR extracellular N-terminus polypeptide (UniProt P21730)
C5aR polypeptide-04 = C5aR polypeptide-04 (UniProt P21730)
C5aR polypeptide-03 = C5aR polypeptide-03 (UniProt P21730)

OD450 nm (C5aR polypeptide-05) [OD450 nm]	OD450 nm [1] [OD450 nm]	OD450 nm (C5aR polypeptide-04) [OD450 nm]	OD450 nm (C5aR polypeptide-03) [OD450 nm]	Binder
0.06	0.12	0.1	0.08	43E8F5B6 (antibody, V domains shown) VH: EVQLQQSGPELVKPGASVKISCKASGYTFTDYYMSWMKQSHGKSLEWIGDINPNNGDNIYNQKFKGKATLTVDRSSSTAYMDLRSLTSEDSAVYYCARWYYYVSSFSYWYFDVWGTGTTVTVSS VL: EIVLTQSPTTMAASPGEKITITCSATSSINSNYLHWYQQKPGFSPKLLIYRTSNLASGVPARFSGSGSGTSYSLTIGTMEAEDVATYYCQQGRTIPRTFGSGTKLEIK
0.41	0.06	2.46	0.06	9D5A12G7 (antibody, V domains shown) VH: QVQLKQSGPGLVQPSQSLSITCTVSGFSLTSYGVHWVRQSPGKGLEWLGVIWSGGSTDYNAAFISRLSISKDNSKSQVFFKMNSLQADDTAIYYCARNGLLGNAMDYWGQGTSVTVSS VL: DIVMSQSPSSLAVSAGEKVTMSCKSSQSLLSSRTRKNYLAWYQQKPGQSPKLLIYWASTRESGVPDRFTGSGSGTDFTLTISSVQTEDLAVYYCKQSYNLLTFGAGTTLELK

Further lines, the binder ahead of its results:

Binder	OD450 nm (C5aR polypeptide-05) [OD450 nm]	OD450 nm [1] [OD450 nm]	OD450 nm (C5aR polypeptide-04) [OD450 nm]	OD450 nm (C5aR polypeptide-03) [OD450 nm]
8B5D1A9 (antibody, V domains shown) VH: QVQLKQSGAELVKPGASVKISCKTSGYIFTDYYINWMKQRPGQGLEWIGKIGPGSGTTFYNEKFKGKATLTADKSSTTLYMQLSSLTAEDSAVYFCTRRGYYSSSYFYWGQGTTLTVSS VL: DIVMTQSPSSLSVSAGEKVIMSCKSSQSLLNSERQKNYLAWYQQKPGQSPKLLIYGASTRESGVPDRFTGSGSGTDFTLTISSVQAEDLAVYYCLNDHSYPLTFGAGTKLELK	0.08	2.5	0.1	0.05
2A12B2B2 (antibody, V domains shown) VH: QVQLQQPGADLVKPGASVKMSCKASGYILTTYWITWVKQRPGQGLEWIGDIHPGSGSTKYNEKFKSKATLTVDTSSSTAYMQLTRLSSEDSAVYYCARRDYWGQGTTLTVSS VL: DIQMTQTTSSLSASLGDKVTISCRASQDISNYLSWYQQKPDGTVKLLIYWISRLHSGVPSRFSGSGSGTDFSLTISNLEQEDIATYFCQQGNSLPPTFGGGTKLEVK	0.29	0.05	2.34	0.06
5F8E2C11 (antibody, V domains shown) VH: QVQLRQSGPGLVQPSQSLSITCTVSGFSLTSYGVHWVRQSPGKGLEWLGVIWSGGSTDYNAAFISRLSISKDYSKSQIFLTMNSLQTDDTAIYYCARNSRLGNCFDYWGQGTTLTVSS VL: DIVMSQSPSSLAVSAGEKVTMSCKSSQSLLNSRTRKNYLAWYQQKPGQSPKLLIYWASTRESGVPDRFTGSGSGTDFTLTISSVQAEDLAVYYCKQSYNLPAFGGGTKLEIK	0.56	0.22	2.52	0.31
